Here are results for 4 molecules from US20160136295A1, “BIOMARKERS FOR TREATMENT WITH ANTI-TUBULIN CHEMOTHERAPEUTIC COMPOUNDS” (GENENTECH, INC., priority 2012, published 2016).

Holding throughout (assay type): biochemical, human
The test system of test [1] is Mcl-1 S121. Description: In vitro kinase reactions: percent phosphorylation of full-length recombinant Mcl-1 at S121. As to conditions: for Percent phosphorylation S121, AVE: average of INJ1 and INJ2; for Percent phosphorylation S121, INJ1: sample injection 1; for Percent phosphorylation S121, INJ2: sample injection 2. How it is done: (§1) To determine the suitability of residues in Mcl-1 as kinase substrates, 10 μM of Mcl-1 was incubated with selected kinase at enzyme concentrations between 25 and 100 nM. For these reactions the Mcl-1 was dialyzed into 20 mM Phosphate, 50 mM Tris pH 7.5 150 mM NaCl, 5 mM DTT and 0.5% CHAPS. The protein solution was further supplemented with MgCl2 to 10 mM and ATP to 1 mM prior to addition of kinase. Purified recombinant kinases were purchased from Invitrogen Co. (Carlsbad, Calif.).
(§2) 10 μl of each of the Mcl-1 kinase reactions (100 pmol) were loaded onto a 4-12% Bis-Tris gel for separation by SDS-PAGE after reduction. Mcl-1 bands were excised from the gel, dehydrated (50% acetonitrile in 50 mM ammonium bicarbonate then 100% acetonitrile washes), and incubated with 0.2 μg trypsin overnight at 37° C.
(§3) Samples were injected in duplicate via autosampler onto a nanoAcquity® UPLC (Waters, Milford, Mass.) and analyzed on-line via nanospray ionization into an LTQ-Orbitrap® mass spectrometer at a concentration of 300 fmol synthetic peptide mix per injection. Areas were integrated for the isotopic and kinase phosphorylated peptides, and compared to their non-phosphorylated peptide counterparts to obtain percent phosphorylation values.

The test system of test [2] is Mcl-1 S159/T163. Description: In vitro kinase reactions: percent phosphorylation of full-length recombinant Mcl-1 at S159+T163. The following applies: for Percent phosphorylation S159/T163, AVE: average; for Percent phosphorylation S159/T163, INJ1: sample injection 1; for Percent phosphorylation S159/T163, INJ2: sample injection 2. As to the method: as §1, §2, §3
In test [3] the test system is Mcl-1 T92. Description: In vitro kinase reactions: percent phosphorylation of full-length recombinant Mcl-1 at T92. The following applies: single kinase reactions, peak areas of 0 and 1P, triple charged state; for Percent phosphorylation T92, AVE: average; for Percent phosphorylation T92, INJ1: sample injection 1; for Percent phosphorylation T92, INJ2: sample injection 2. How it is done:
as §1, §2, §3

For test [4], the system named is Mcl-1 T163. Description: In vitro kinase reactions: percent phosphorylation of full-length recombinant Mcl-1 at T163. The following applies: single kinase reactions; for Percent phosphorylation T163, AVE: average of INJ1 and INJ2; for Percent phosphorylation T163, INJ1: sample injection 1; for Percent phosphorylation T163, INJ2: sample injection 2. As to the method: as §1, §2, §3

The mark [5] stands for this setting: % phos on S159+T163, CDK1 + kinase panel reactions.
[6] abbreviates: % phos on S159+T163, single kinase reactions.

B1: MAPK12: purified recombinant kinase purchased from Invitrogen (protein, UniProt P53778 1-367, looked up)
Mitogen-activated protein …: MSSPPPARSGFYRQEVTKTAWEVRAVYRDLQPVGSGAYGAVCSAVDGRTGAKVAIKKLYRPFQSELFAKRAYRELRLLKHMRHENVIGLLDVFTPDETLDDFTDFYLVMPFMGTDLGKLMKHEKLGEDRIQFLVYQMLKGLRYIHAAGIIHRDLKPGNLAVNEDCELKILDFGLARQADSEMTGYVVTRWYRAPEVILNWMRYTQTVDIWSVGCIMAEMITGKTLFKGSDHLDQLKEIMKVTGTPPAEFVQRLQSDEAKNYMKGLPELEKKDFASILTNASPLAVNLLEKMLVLDAEQRVTAGEALAHPYFESLHDTEDEPQVQKYDDSFDDVDRTLDEWKRVTYKEVLSFKPPRQLGARVSKETPL
Turning to B1, in test [1] (CDK1 + kinase panel reactions), the “Percent phosphorylation S121, AVE” value stood at 18.12%; the “Percent phosphorylation S121, INJ1” value is listed as 18.73%; the “Percent phosphorylation S121, INJ2” value came to 17.51%. In test [1] (single kinase reactions), the “Percent phosphorylation S121, AVE” value turned out to be 11.00%; the “Percent phosphorylation S121, INJ1” value came to 10.71%; the “Percent phosphorylation S121, INJ2” value worked out at 11.28%. Moreover, in test [2] (setting [5]), the “Percent phosphorylation S159/T163, AVE” value stood at 0.00%; the “Percent phosphorylation S159/T163, INJ1” value is listed as 0.00%; the “Percent phosphorylation S159/T163, INJ2” value amounted to 0.00%. In test [2] (setting [6]), the “Percent phosphorylation S159/T163, AVE” value came out at 0.00%; the “Percent phosphorylation S159/T163, INJ1” value is listed as 0.00%; the “Percent phosphorylation S159/T163, INJ2” value turned out to be 0.00%. For the same molecule, in test [3], the “Percent phosphorylation T92, AVE” value stood at 69.58%; the “Percent phosphorylation T92, INJ1” value is 71.57%; the “Percent phosphorylation T92, INJ2” value worked out at 67.59%. Besides, in test [4], the “Percent phosphorylation T163, AVE” value amounted to 53.34%; the “Percent phosphorylation T163, INJ1” value is on record as 55.05%; the “Percent phosphorylation T163, INJ2” value is 51.63%.

B2: MAPK10: purified recombinant kinase purchased from Invitrogen (protein, UniProt P53779 1-464, looked up)
Mitogen-activated protein …: MSLHFLYYCSEPTLDVKIAFCQGFDKQVDVSYIAKHYNMSKSKVDNQFYSVEVGDSTFTVLKRYQNLKPIGSGAQGIVCAAYDAVLDRNVAIKKLSRPFQNQTHAKRAYRELVLMKCVNHKNIISLLNVFTPQKTLEEFQDVYLVMELMDANLCQVIQMELDHERMSYLLYQMLCGIKHLHSAGIIHRDLKPSNIVVKSDCTLKILDFGLARTAGTSFMMTPYVVTRYYRAPEVILGMGYKENVDIWSVGCIMGEMVRHKILFPGRDYIDQWNKVIEQLGTPCPEFMKKLQPTVRNYVENRPKYAGLTFPKLFPDSLFPADSEHNKLKASQARDLLSKMLVIDPAKRISVDDALQHPYINVWYDPAEVEAPPPQIYDKQLDEREHTIEEWKELIYKEVMNSEEKTKNGVVKGQPSPSGAAVNSSESLPPSSSVNDISSMSTDQTLASDTDSSLEASAGPLGCCR
Regarding B2, in test [1] (CDK1 + kinase panel reactions), the “Percent phosphorylation S121, AVE” value is reported as 32.85%; the “Percent phosphorylation S121, INJ1” value was 32.82%; the “Percent phosphorylation S121, INJ2” value is reported as 32.88%. In test [1] (single kinase reactions), the “Percent phosphorylation S121, AVE” value turned out to be 13.14%; the “Percent phosphorylation S121, INJ1” value is listed as 11.61%; the “Percent phosphorylation S121, INJ2” value is given as 14.67%. Further, in test [2] (setting [5]), the “Percent phosphorylation S159/T163, AVE” value turned out to be 4.10%; the “Percent phosphorylation S159/T163, INJ1” value came out at 3.86%; the “Percent phosphorylation S159/T163, INJ2” value came out at 4.33%. Besides, in test [2] (setting [6]), the “Percent phosphorylation S159/T163, AVE” value was determined as 16.83%; the “Percent phosphorylation S159/T163, INJ1” value is reported as 16.73%; the “Percent phosphorylation S159/T163, INJ2” value amounted to 16.92%. In test [3], the “Percent phosphorylation T92, AVE” value stood at 9.35%; the “Percent phosphorylation T92, INJ1” value is given as 10.29%; the “Percent phosphorylation T92, INJ2” value turned out to be 8.41%. Besides, in test [4], the “Percent phosphorylation T163, AVE” value was 43.90%; the “Percent phosphorylation T163, INJ1” value was 45.09%; the “Percent phosphorylation T163, INJ2” value was 42.70%.

B3: MAPK13: purified recombinant kinase purchased from Invitrogen (protein, UniProt O15264 1-365, looked up)
Mitogen-activated protein …: MSLIRKKGFYKQDVNKTAWELPKTYVSPTHVGSGAYGSVCSAIDKRSGEKVAIKKLSRPFQSEIFAKRAYRELLLLKHMQHENVIGLLDVFTPASSLRNFYDFYLVMPFMQTDLQKIMGMEFSEEKIQYLVYQMLKGLKYIHSAGVVHRDLKPGNLAVNEDCELKILDFGLARHADAEMTGYVVTRWYRAPEVILSWMHYNQTVDIWSVGCIMAEMLTGKTLFKGKDYLDQLTQILKVTGVPGTEFVQKLNDKAAKSYIQSLPQTPRKDFTQLFPRASPQAADLLEKMLELDVDKRLTAAQALTHPFFEPFRDPEEETEAQQPFDDSLEHEKLTVDEWKQHIYKEIVNFSPIARKDSRRRSGMKL
As to B3, in test [1] (CDK1 + kinase panel reactions), the “Percent phosphorylation S121, AVE” value was found to be 20.30%; the “Percent phosphorylation S121, INJ1” value came out at 20.33%; the “Percent phosphorylation S121, INJ2” value is 20.26%. Moreover, in test [1] (single kinase reactions), the “Percent phosphorylation S121, AVE” value is 8.21%; the “Percent phosphorylation S121, INJ1” value amounted to 10.06%; the “Percent phosphorylation S121, INJ2” value was 6.35%. Moreover, in test [2] (setting [5]), the “Percent phosphorylation S159/T163, AVE” value came to 0.56%; the “Percent phosphorylation S159/T163, INJ1” value is reported as 0.74%; the “Percent phosphorylation S159/T163, INJ2” value is reported as 0.38%. In test [2] (setting [6]), the “Percent phosphorylation S159/T163, AVE” value came to 4.70%; the “Percent phosphorylation S159/T163, INJ1” value is reported as 5.77%; the “Percent phosphorylation S159/T163, INJ2” value was determined as 3.62%. In test [3], the “Percent phosphorylation T92, AVE” value turned out to be 22.75%; the “Percent phosphorylation T92, INJ1” value is 22.96%; the “Percent phosphorylation T92, INJ2” value was determined as 22.54%. Also, in test [4], the “Percent phosphorylation T163, AVE” value was found to be 64.78%; the “Percent phosphorylation T163, INJ1” value is 65.53%; the “Percent phosphorylation T163, INJ2” value amounted to 64.03%.

B4: MAPK11: purified recombinant kinase purchased from Invitrogen (protein, UniProt Q15759 1-364, looked up)
Mitogen-activated protein …: MSGPRAGFYRQELNKTVWEVPQRLQGLRPVGSGAYGSVCSAYDARLRQKVAVKKLSRPFQSLIHARRTYRELRLLKHLKHENVIGLLDVFTPATSIEDFSEVYLVTTLMGADLNNIVKCQALSDEHVQFLVYQLLRGLKYIHSAGIIHRDLKPSNVAVNEDCELRILDFGLARQADEEMTGYVATRWYRAPEIMLNWMHYNQTVDIWSVGCIMAELLQGKALFPGSDYIDQLKRIMEVVGTPSPEVLAKISSEHARTYIQSLPPMPQKDLSSIFRGANPLAIDLLGRMLVLDSDQRVSAAEALAHAYFSQYHDPEDEPEAEPYDESVEAKERTLEEWKELTYQEVLSFKPPEPPKPPGSLEIEQ
As for B4, in test [1] (CDK1 + kinase panel reactions), the “Percent phosphorylation S121, AVE” value was 10.11%; the “Percent phosphorylation S121, INJ1” value was found to be 10.45%; the “Percent phosphorylation S121, INJ2” value amounted to 9.76%. Also, in test [1] (single kinase reactions), the “Percent phosphorylation S121, AVE” value amounted to 5.66%; the “Percent phosphorylation S121, INJ1” value is 5.84%; the “Percent phosphorylation S121, INJ2” value was determined as 5.48%. In test [2] (setting [5]), the “Percent phosphorylation S159/T163, AVE” value is on record as 0.94%; the “Percent phosphorylation S159/T163, INJ1” value is 1.15%; the “Percent phosphorylation S159/T163, INJ2” value turned out to be 0.73%. For the same molecule, in test [2] (setting [6]), the “Percent phosphorylation S159/T163, AVE” value is 2.56%; the “Percent phosphorylation S159/T163, INJ1” value was found to be 3.06%; the “Percent phosphorylation S159/T163, INJ2” value worked out at 2.06%. Also, in test [3], the “Percent phosphorylation T92, AVE” value amounted to 3.27%; the “Percent phosphorylation T92, INJ1” value is recorded as 2.59%; the “Percent phosphorylation T92, INJ2” value amounted to 3.95%. For the same molecule, in test [4], the “Percent phosphorylation T163, AVE” value turned out to be 51.87%; the “Percent phosphorylation T163, INJ1” value is on record as 53.70%; the “Percent phosphorylation T163, INJ2” value is reported as 50.04%.
